As a reminder, the Kd is the constant that tells how readily two partners part at equilibrium.

For series [1], the target named is 3E10-D31N IgG4 S228P/F234A/L235A/M252Y/S254T/T256E (synthetic construct, UniProt P01861; SEQ:1-443,SEQ:1-218). The series can be described thus: BLI; 1:1 model; antibody on AHC2 sensor; RNA 62.5-500 nM. The note with it: tags: human IgG4 Fc; chain copies: 2 heavy + 2 light (inferred); hairpin. (Biolayer interferometry detects binding as a change in optical thickness at a sensor tip.)

Series [2] addresses 3E10-D31N IgG4 S228P/F234A/L235A (synthetic construct, UniProt P01861; SEQ:1-443,SEQ:1-218). The series is described as above. The note with it: tags: human IgG4 Fc; chain copies: 2 heavy + 2 light (inferred); hairpin.
Series [3] addresses 3E10-D31N IgG4 S228P/F234A/L235A/T307Q/N434A (synthetic construct, UniProt P01861; SEQ:1-443,SEQ:1-218). The series is described as above. The note with it: tags: human IgG4 Fc; chain copies: 2 heavy + 2 light (inferred); hairpin.
The target in series [4] is 3E10-D31N (chimeric, murine VH/VL). The description is as above. The note with it: tags: human Fc IgG; chain copies: 2 heavy + 2 light (inferred); hairpin.
Series [5] has as its target 3E10-D31N IgG4 S228P/F234A/L235A/H310Q (synthetic construct, UniProt P01861; SEQ:1-443,SEQ:1-218). Described as above. Conditions: tags: human IgG4 Fc; chain copies: 2 heavy + 2 light (inferred); hairpin.
Series [6] has as its target 3E10-D31N (chimeric, murine VH/VL). The series can be described thus: BLI; 1:1 model; antibody on AHC2 sensor; ka 2.29E5, kdis 4.76E-4. Conditions: tags: human Fc IgG; chain copies: 2 heavy + 2 light (inferred); hairpin.
Series [7] concerns the target humanized 3E10 V66 (HEK293) (synthetic construct, UniProt P01857; SEQ:1-446,SEQ:1-218). The series can be described thus: BLI; 1:1 model; antibody on AHC2 sensor; ka 2.42E5, kdis 3.13E-4. Conditions: tags: human Fc IgG; transiently expressed in HEK293; chain copies: 2 heavy + 2 light (inferred); hairpin.
In a further series the target is humanized 3E10 V66 (CHO) (synthetic construct, UniProt P01857; SEQ:1-446,SEQ:1-218). Put plainly: BLI; 1:1 model; antibody on AHC2 sensor; ka 3.08E5, kdis 7.99E-4. Conditions: tags: human Fc IgG; transiently expressed in CHO; chain copies: 2 heavy + 2 light (inferred); hairpin.
Sequence of humanized 3E10 V66 (CHO) (P01857 other isoform, or with tags, fused parts or gaps, chain 1 of 2): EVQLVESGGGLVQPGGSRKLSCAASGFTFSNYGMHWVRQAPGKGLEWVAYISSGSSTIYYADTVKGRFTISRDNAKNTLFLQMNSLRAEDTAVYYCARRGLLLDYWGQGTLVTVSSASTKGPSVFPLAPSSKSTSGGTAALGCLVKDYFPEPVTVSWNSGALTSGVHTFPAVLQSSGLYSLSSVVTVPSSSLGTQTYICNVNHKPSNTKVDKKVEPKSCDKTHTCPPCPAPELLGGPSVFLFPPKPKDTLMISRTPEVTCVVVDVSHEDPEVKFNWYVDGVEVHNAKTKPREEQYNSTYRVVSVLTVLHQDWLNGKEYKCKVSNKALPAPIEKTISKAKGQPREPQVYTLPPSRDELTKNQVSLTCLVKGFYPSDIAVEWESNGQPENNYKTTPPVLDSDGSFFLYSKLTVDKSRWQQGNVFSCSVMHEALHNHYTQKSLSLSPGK
Sequence of humanized 3E10 V66 (CHO) (chain, as listed by the source, chain 2 of 2): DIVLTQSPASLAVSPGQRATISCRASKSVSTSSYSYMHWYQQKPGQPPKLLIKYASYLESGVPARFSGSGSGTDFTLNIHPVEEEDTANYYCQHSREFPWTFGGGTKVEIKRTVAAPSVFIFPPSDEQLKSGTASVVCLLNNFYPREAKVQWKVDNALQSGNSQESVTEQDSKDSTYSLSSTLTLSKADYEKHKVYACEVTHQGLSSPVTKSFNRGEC

Sequence of humanized 3E10 V66 (HEK293) (P01857 other isoform, or with tags, fused parts or gaps, chain 1 of 2): as the sequence (P01857 other isoform, or with tags, fused parts or gaps, chain 1 of 2) above
Sequence of humanized 3E10 V66 (HEK293) (chain, as listed by the source, chain 2 of 2): as the sequence (chain, as listed by the source, chain 2 of 2) above

B1: 3p-hpRNA RIG-I agonist (89 nt) (ssRNA)
RNA: GGAGCAAAAGCAGGGUGACAAAGACAUAAUGGAUCCAAACACUGUGUCAAGCUUUCAGGUAGAUUGCUUUCUUUGGCAUGUCCGCAAAC
modifications: 5'-triphosphate
Regarding B1, the Kd in series [1] came out at 5 nM; in series [2], 3.33 nM; in series [3], 12.7 nM; in series [4] it was 10.5 nM; in series [5] it was 6.58 nM; in series [6] it was 2.08 nM. Further, the Kd in series [7] is 1.3 nM; with humanized 3E10 V66 (CHO) it was 2.6 nM.

The values are drawn from US20230303719, “HUMANIZED 3E10 ANTIBODIES, VARIANTS, AND ANTIGEN BINDING FRAGMENTS THEREOF” (YALE UNIVERSITY, published 2023).
